Measured values: US20240400717A1 (NATIONAL CHENG KUNG UNIVERSITY, published 2024)
Changes are numbered by the printed parent chain. Where two headings read alike, the source gives them in different places.

Tests used:
recombinant human CHI3L1 [1] = molecular target: T1, recombinant human CHI3L1 (human, UniProt P36222 22-383); assay: phage ELISA (4th round single clone screening): coated protein, rescued phage supernatant, anti-M13-HRP, OD450
T1 construct: also called rCHI3L1; human rCHI3L1

mouse rCHI3L1 [2] = molecular target: T2, mouse rCHI3L1 (mouse, UniProt Q61362 30-389, limits assumed); assay: as above
T2 construct: also called mouse CHI3L1; murine CHI3L1
T2 sequence (Q61362 30-389 limits assumed): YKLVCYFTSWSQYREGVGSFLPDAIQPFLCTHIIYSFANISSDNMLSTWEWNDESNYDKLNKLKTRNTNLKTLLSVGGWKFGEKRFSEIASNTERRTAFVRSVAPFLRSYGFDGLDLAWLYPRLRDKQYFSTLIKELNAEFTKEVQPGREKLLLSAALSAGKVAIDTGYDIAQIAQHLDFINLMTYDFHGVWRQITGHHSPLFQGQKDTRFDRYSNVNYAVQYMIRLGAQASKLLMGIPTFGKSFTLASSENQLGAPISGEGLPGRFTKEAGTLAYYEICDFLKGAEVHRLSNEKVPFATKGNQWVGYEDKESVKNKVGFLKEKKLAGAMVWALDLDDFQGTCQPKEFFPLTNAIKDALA

[3] = molecular target: T3, human CHI3L1 extracellular domain fused with flag and His tag recombinant protein (human, UniProt P36222 22-383); assay: BLI (ForteBio Octet), mAb captured on AHC sensor, hCHI3L1/flag-His as analyte
T3 construct: extracellular domain; also called hCHI3L1/flag-His; hCHI3L1; not shown: flag and His tag
T3 sequence (P36222 22-383 limits assumed): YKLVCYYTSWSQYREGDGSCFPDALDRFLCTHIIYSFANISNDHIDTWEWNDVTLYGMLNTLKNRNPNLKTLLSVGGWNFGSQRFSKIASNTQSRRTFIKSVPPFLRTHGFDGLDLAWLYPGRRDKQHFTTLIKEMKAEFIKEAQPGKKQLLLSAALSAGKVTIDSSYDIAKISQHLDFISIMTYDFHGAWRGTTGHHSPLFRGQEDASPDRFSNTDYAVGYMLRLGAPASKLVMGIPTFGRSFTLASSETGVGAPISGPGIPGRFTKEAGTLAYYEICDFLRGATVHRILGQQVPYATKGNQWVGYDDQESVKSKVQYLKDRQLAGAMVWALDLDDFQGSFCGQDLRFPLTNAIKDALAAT

recombinant human CHI3L1 [4] = molecular target: T1, recombinant human CHI3L1; assay: ELISA: coated recombinant protein titrated 2.50 to 0.00 µg/ml, antibody at 1 µg/ml, OD450
[5] = molecular target: T4, human chitotriosidase-1 (CHIT1) (human, UniProt Q13231 22-466, limits assumed); assay: as above
T4 sequence (Q13231 22-466 limits assumed): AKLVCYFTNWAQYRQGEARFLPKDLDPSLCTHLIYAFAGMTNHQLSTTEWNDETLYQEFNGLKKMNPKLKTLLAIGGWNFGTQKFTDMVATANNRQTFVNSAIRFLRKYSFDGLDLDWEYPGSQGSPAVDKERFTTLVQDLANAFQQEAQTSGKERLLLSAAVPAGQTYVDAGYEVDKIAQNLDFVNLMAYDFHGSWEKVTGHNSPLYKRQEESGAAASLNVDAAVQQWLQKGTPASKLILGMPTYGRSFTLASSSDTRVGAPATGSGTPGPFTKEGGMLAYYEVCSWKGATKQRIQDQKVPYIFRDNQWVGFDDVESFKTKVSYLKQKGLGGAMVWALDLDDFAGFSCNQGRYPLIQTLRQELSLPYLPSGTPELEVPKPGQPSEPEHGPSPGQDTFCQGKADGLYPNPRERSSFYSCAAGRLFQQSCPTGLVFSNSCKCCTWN

CHI3L2 [6] = molecular target: T5, CHI3L2 (human, UniProt Q15782 27-390, limits assumed); assay: as above
T5 construct: The sentence reads 'human chitotriosidase-1 (CHIT1) and CHI3L2'
T5 sequence (looked up): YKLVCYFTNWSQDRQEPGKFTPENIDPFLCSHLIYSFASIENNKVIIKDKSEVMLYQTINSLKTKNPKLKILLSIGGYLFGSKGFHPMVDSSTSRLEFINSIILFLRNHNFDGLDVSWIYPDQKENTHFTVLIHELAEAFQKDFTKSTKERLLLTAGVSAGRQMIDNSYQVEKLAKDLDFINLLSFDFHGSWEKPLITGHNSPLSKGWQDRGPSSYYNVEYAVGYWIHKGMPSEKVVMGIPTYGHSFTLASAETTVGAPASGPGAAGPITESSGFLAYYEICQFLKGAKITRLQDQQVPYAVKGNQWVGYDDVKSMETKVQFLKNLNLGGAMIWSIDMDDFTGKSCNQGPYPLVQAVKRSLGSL

mouse rCHI3L1 [7] = molecular target: T2, mouse rCHI3L1; assay: phage ELISA (3rd round single clone screening): coated protein, rescued phage supernatant, anti-M13-HRP, OD450
recombinant human CHI3L1 [8] = molecular target: T1, recombinant human CHI3L1; assay: ELISA: coated recombinant protein titrated 2.50 to 0.00 µg/ml, antibody at 1 µg/ml, OD450; remark: listed apart in the source
[9] = molecular target: T4, human chitotriosidase-1 (CHIT1); assay: as above; remark: listed apart in the source
CHI3L2 [10] = molecular target: T5, CHI3L2; assay: as above; remark: listed apart in the source
recombinant human CHI3L1 [11] = molecular target: T1, recombinant human CHI3L1; assay: ELISA: coated human rCHI3L1 titrated 2.5 to 0 µg/ml, antibody concentration not given, OD450
mouse rCHI3L1 [12] = molecular target: T2, mouse rCHI3L1; assay: phage ELISA (4th round single clone screening): coated protein, rescued phage supernatant, anti-M13-HRP, OD450; remark: listed apart in the source
recombinant human CHI3L1 [13] = molecular target: T1, recombinant human CHI3L1; assay: as above; remark: listed apart in the source
recombinant human CHI3L1 [14] = molecular target: T1, recombinant human CHI3L1; assay: ELISA: coated recombinant protein titrated 2.50 to 0.00 µg/ml, antibody at 1 µg/ml, OD450; remark: listed apart in the source
[15] = molecular target: T4, human chitotriosidase-1 (CHIT1); assay: as above; remark: listed apart in the source
CHI3L2 [16] = molecular target: T5, CHI3L2; assay: as above; remark: listed apart in the source
recombinant human CHI3L1 [17] = molecular target: T1, recombinant human CHI3L1; assay: as above; remark: listed apart in the source
[18] = molecular target: T4, human chitotriosidase-1 (CHIT1); assay: as above; remark: listed apart in the source
CHI3L2 [19] = molecular target: T5, CHI3L2; assay: as above; remark: listed apart in the source
mouse rCHI3L1 [20] = molecular target: T2, mouse rCHI3L1; assay: ELISA: coated mouse rCHI3L1 titrated 2.5 to 0 µg/ml, antibody concentration not given, OD450

T1 sequence (P36222 22-383 limits assumed): as the sequence (P36222 22-383 limits assumed) above

B1: anti-CHI3L1 clone R4-63 (antibody, human IgG1, V domains shown)
VH: EVQLVQSGAEVKKPGATVKISCKVSGYTFTDYYMHWVQQAPGKGLEWMGLVDPEDGETIYAEKFQGRVTITADTSTDTAYMELSSLRSEDTAVYYCATIGRPPDYWGQGTTVTVSS
VL: QSVLTQPPSVSAAPGQKVTISCSGSSSNIGNNYVSWYQQLPGTAPKLLIYDNNKRPSGIPDRFSGSKSGTSATLGITGLQTGDEADYYCGTWDSSLSVWVFGGGTKLTVLG
notes: also called #hu R4-63
binding result (recombinant human CHI3L1 [1]): binds | binding result (mouse rCHI3L1 [2]): no binding

B2: anti-CHI3L1 clone 293R3-2 (antibody, human IgG1, V domains shown)
VH: QVQLQESGPGLVEPSGTLSLTCAVSGGSISSSNWWSWVRQHPGKGLEWIGEIYHSGSTNYNPSLRSRVTISVDKSKNQFSLELSSVTAADTAVYYCAGDQRMEDDAFDIWGQGTMVTVSS
VL: QSALTQPASVSGSPGQSITISCTGTSSDVGGYNYVSWYQQHPGKAPKLMIYDVSNRPSGVSNRFSGSKSGNTASLTISGLQAEDEADYYCSSYTSSSTLYVFGTGTKVTVLG
notes: also called #hu 293R3-2; CHI3L1 293R3-2
Kd [3]: 2.79 nM | koff [3]: 0.00302 s⁻¹ | kon [3]: 1.08e+06 M⁻¹ s⁻¹ | EC50 (read off the curve) (recombinant human CHI3L1 [4]): ~0.8 µg/mL | binding result [5]: no binding | binding result (CHI3L2 [6]): no binding | binding result (mouse rCHI3L1 [7]): no binding

B3: anti-CHI3L1 clone R4-4 (antibody, V domains shown)
VH: EVQLLESGGGLLQPGGSLRLSCAASGLTFRNYAMTWVRQAPGKGLEWVSTISGNGDETFYADSVKGHFTISRDNSKDTVYLQMNSLRAEDTAVYYCAKGGHYSFFDSWGQGSPVTVSS
VL: NFMLTQPHSVSESPGKTVTISCTRSSGSIASNYVQWYQQRPGSSPTTVIYEDNQRPSGVPDRFSGSIDSSSNSASLTISGLKTEDEADYYCQSYDSSNYVFGTGTKVTVLG
notes: also called #hu R4-4; mAb clone R4-4
Kd [3]: 1.13 nM | koff [3]: 0.000353 s⁻¹ | kon [3]: 313000 M⁻¹ s⁻¹ | EC50 (read off the curve) (recombinant human CHI3L1 [8]): ~0.5 µg/mL | binding result [9]: no binding | binding result (CHI3L2 [10]): no binding | EC50 (read off the curve) (recombinant human CHI3L1 [11]): ~0.6 µg/mL | binding result (mouse rCHI3L1 [12]): binds

B4: anti-CHI3L1 clone R4-62 (antibody, human IgG1, V domains shown)
VH: EVQLVESGGGLVQPGGSLRLSCAASGLTFPNFAMTWVRQTPGKGLQWVSTISGRGDEPFYADSVKGRFTISRDNSKNMVYLHMNSLRAEDTAIYYCAKGGHFSSWDYWGQGTLVTVSS
VL: B3 VL with G42D, S44A, N53I, Q54E, S66A, S71A, K82Q, N98S
notes: also called #hu R4-62
binding result (recombinant human CHI3L1 [1]): binds

B5: anti-CHI3L1 clone R4-2 (antibody, human IgG1, V domains shown)
VH: QVQLVQSGAEVKKPGSSVKVSCKASGGTFSSYAISWVRQAPGQGLEWMGGIIPIFGTANYAQKFQGRVTITADESTSTAYMELSSLRSEDTAVYYCARGDIEYYDILTGYYYYFDYWGQGTLVTVSS
VL: SYVLTQPPSVSVAPGKAARVTCGGNDIGSKSVQWYQQKPGQAPVLVISYDNDRPSGIPERFSGSNSGNTATLTISRVEAGDEADYYCQVWDSTSDHYVFGTGTKVTVQG
notes: also called #hu R4-2
binding result (recombinant human CHI3L1 [13]): binds | binding result (mouse rCHI3L1 [12]): no binding

B6: anti-CHI3L1 clone R4-54 (antibody, human IgG1, V domains shown)
VH: QVQLVESGGGVVQPGRSLRLSCAASGFTFSSYGMHWVRQAPGKGLEWVAVISYDGSDKDYADSVKGRFTISRDNSKNTLFLQMNSLRAEDTAVYYCARDDYDSTYYFDNWGQGTTVTVSS
VL: SYELTQPPSVSVSPGQTASITCSGDILADQYASWYQQKPGQSPVLVIYHDTKRPSGVPERFSGSTSGNTATLTISGTQAMDEAAYYCQAWDINTAWVFGGGTQLTVLG
notes: also called #hu R4-54; mAb clone R4-54
Kd [3]: 4.22 nM | koff [3]: 0.0065 s⁻¹ | kon [3]: 1.54e+06 M⁻¹ s⁻¹ | EC50 (read off the curve) (recombinant human CHI3L1 [14]): ~0.8 µg/mL | binding result [15]: no binding | binding result (CHI3L2 [16]): no binding | binding result (mouse rCHI3L1 [2]): no binding

B7: anti-CHI3L1 clone 293R3-4 (antibody, human IgG1, V domains shown)
VH: EVQLVQSGAEVKKPGATVKISCKVSGYSFTDYYIHWVQQAPGKGLEWMGFVDPENGETIYAEKFQGRVTITADTSTDTAYMELSSLRSDDTAVYYCATDRDYDDSSGNAFDIWGQGTMVTVSS
VL: SYELTQPPSVSVSTGQTATITCSGDILGDEYAFWYQQKAGQSPVLVIYLDTRRPSGIPERFSGSNSGDTATLTISETQPVDEAVYFCQGWDSSTALYVFGTGTKVTVLG
notes: also called #hu 293R3-4; CHI3L1 293R3-4
Kd [3]: 3.94 nM | koff [3]: 0.00722 s⁻¹ | kon [3]: 1.83e+06 M⁻¹ s⁻¹ | EC50 (read off the curve) (recombinant human CHI3L1 [17]): ~0.8 µg/mL | binding result [18]: no binding | binding result (CHI3L2 [19]): no binding | binding result (mouse rCHI3L1 [20]): no binding (tested: 2.5 µg/ml coated protein)

B8: anti-CHI3L1 clone R4-39 (antibody, human IgG1, V domains shown)
VH: EVQLVQSGAEVRKPGESLKISCKASGYRFTNYWIGWVRQMPGKGLEWMGIIYPDDSNTKYSPSFQGQVTISVDKPITTAYLQWSSLKASDTAMYYCVRLDTYYYDSSGFPFDAFDIWGQGTMVTVSS
VL: DIQMTQSPSSLSAFVGDRVTITCQASQDISTFLSWYQQKPGKAPKLLIYDATNLETGVPSRFSGRGSGTDFTFTISSLQPEDVATYFCQQYDFLPLSFGGGTKVEIRR
notes: also called #hu R4-39
binding result (recombinant human CHI3L1 [13]): binds | binding result (mouse rCHI3L1 [12]): no binding

B9: anti-CHI3L1 clone R4-53 (antibody, human IgG1, V domains shown)
VH: QVQLVQSGAEVKKPGASVKVSCKASGYTFTSYYMHWVRQAPGQGLEWMGIINPSGGSTSYAQKFQGRVTMTRDTSTSTVYMELSSLRSEDTAVYYCASDIGDYGDYWGQGTTVTVSS
VL: SYVLTQPPSVSVALGQTARITCGGNNIESKIVSWYQQKPGQAPVLVIFYDTDRPSGISERFSGSNSGNTATLTISRVEAGDEADYYCQVWDSNSDHVIFGGGTKLTVLG
notes: also called #hu R4-53
binding result (recombinant human CHI3L1 [1]): binds | binding result (mouse rCHI3L1 [2]): no binding

B10: anti-CHI3L1 clone R4-93 (antibody, human IgG1, V domains shown)
VH: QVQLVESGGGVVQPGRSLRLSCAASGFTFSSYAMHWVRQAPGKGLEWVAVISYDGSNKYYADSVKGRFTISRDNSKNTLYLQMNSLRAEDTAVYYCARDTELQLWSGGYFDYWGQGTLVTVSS
VL: NFMLTQPHSVSESPGKTVIISCTRSSGSIAHNYVQWYQLRPGSAPTTVISDDDQRPSGVPDRFSGSIDSSSNSASLTISGLRTEDEADYYCQSFDDSNWVFGGGTRLTVLG
notes: also called #hu R4-93
binding result (recombinant human CHI3L1 [1]): binds | binding result (mouse rCHI3L1 [2]): no binding
